Laboratory results published in patent US9144594B2, “Cathepsin L mediated diseases and associated methods and products” (University of Miami, priority 2005, dated 2015).
Positions count from the first letter of the chain named. Names and notes keep the numbering of the source.

Legend:
mice = test: Protein in urine after in vivo gene delivery of dynamin mutants into healthy mice (Bradford); set-up: species or system mouse
Method: Next, the level of urinary protein loss following gene delivery of dynamin mutants was examined (Table 2). […] The expression of K44A was associated with severe proteinuria (1.18 mg/ml) at peak gene expression time of 10 hours post injection. The reduction in gene expression was paralleled by a reduction in proteinuria (0.77 mg/ml). Gene transfer of dynR725A caused an increase in proteinuria (0.58 mg/ml). Although this was not a significant increase, it is probable that it is a consequence of the partial podocyte FP effacement seen after gene transfer of dynR725A, and due to increase in the stress fibers formation observed in cultured podocytes.
To explore whether functional dynamin is required for the maintenance of FP morphology in healthy kidneys, it was examined whether expression of dominant negative dynK44A disrupts podocyte function. […] In contrast, podocin driven expression of dynK44A, the dynamin mutant that cannot bind GTP, caused FP effacement (FIG. 21B) and proteinuria (1.1±0.26 mg/ml) at the peak of gene expression […] after gene delivery (FIGS. 21D and 25C). […] In other words, tight regulation of the life-time of the GTP-bound form of dynamin appears to be required for normal FP morphology and ultrafiltration.
CatL plasmids encoding short and long CatL (Goulet et al., Biol Chem 387, 1285-1293 (2004)), Dyn1 plasmids (pcDNA-driven) or p2.5 Podocin-driven (Moeller et al., Genesis 35, 39-42 (2003)) were introduced into mice (n>10, each construct) using the TransIT in vivo gene delivery system according to the manufacturer's instruction (Mirus Bio Corporation, Madison, Wis.). 10 and 24 h after gene delivery, proteinuria was assessed by Multistix 8 SG strips (Bayer Corporation, Elkhart, Ind.), and Bradford protein assay (Sigma, Saint Louis, Mo.). From the same urines the protein creatinine ratio was determined with Albuwell M and Creatinine Companion protein creatinine ELISA kits (Exocell Inc., Philadelphia, Pa.).

[1] = test system: LPS induced mouse proteinuria model; test: LPS induced mouse proteinuria model, protein in urine (prevention and reversal by dynamin gene delivery); format: in vivo
Method: Next, it was examined whether gene transfer of dynR725A and dynL356Q, G358V was able to protect from LPS induced changes of podocyte FP and thus proteinuria (FIGS. 6A-B); (Table 2B). […] Whereas the application of wildtype dynamin was unable to protect from LPS induced podocyte FP effacement (data not shown) and proteinuria (0.63 mg/ml after 24 hours, p<0.05 and 1.18 mg/ml after 48 hours, p<0.04); table 2B, the co-administration of R725A together with LPS completely abolished the development of proteinuria after 24 hours (0.20 mg/ml). Podocyte FPs remained normal at this timepoint (FIG. 6B). The decline of R725A expression in podocytes was then associated with the development of proteinuria (1.25 mg/ml, 48 h). At this time point, there was noticeable podocyte FP effacement. The application of the cathepsin L resistant dynamin mutant L356Q, G358V together with LPS conferred a partial protection from proteinuria (0.47 mg/ml, P<0.05). This protection was associated with normal appearing podocyte FP (FIG. 6C). Although this protection was not as strong as the one provided by dynR725A, it was prolonged and was still present even after the second dose of LPS ([…], P<0.04). This observation argues that lower expression levels of dynL356Q, G358V are required to protect from LPS induced FP effacement but the presence of dynR725A has the most powerful protection.
Another set of experiments was carried out to study whether dynR725A and dynL356Q, G358V are also useful once there is already established podocyte damage and proteinuria (reversal experiments), (FIGS. 6C, D); (Table 2C). First LPS was injected in mice at 0 and 24 hours and the course of urinary protein loss was documented. On the peak phase of proteinuria at 48 hours after the first LPS injection, either delivery solution (control), dynR725A or dynL356Q, G358V dynamin mutants were transferred and the morphology of podocyte FP was analyzed and the degree of proteinuria was determined 10 hours later when there was strong expression of the transferred gene in podocytes. […] A dramatic reformation of podocyte FPs was also observed (FIG. 6C). The same observation was true for L356Q, G358V (FIG. 6D) which was able to reduce proteinuria from 1.20 mg/ml to 0.71 mg/ml). From the in vitro data it was determined that R725A starts to self assemble into higher order structures in the LPS setting which render dynamin assembly domain protected from cathepsin L cleavage. […] In addition, dominant activating dynR725A proves useful because despite causing podocyte damage in wildtype mice, it can resist cathepsin L cleavage by self assembly in the LPS setting and have strong activity by impairment in its GTP hydrolysis.
If dynamin is a target of CatL, then dynL356Q and dynR725A, which are resistant to CatL cleavage, might protect kidneys from LPS. In control mice, two injections of LPS led to FP effacement (FIG. 21C) and a large increase in proteinuria (FIG. 21E, Con).
Next it was examined whether dynL356Q and dynR725A can reverse already established proteinuria. LPS was injected into mice at 0 and 24 hours. At the peak of proteinuria at 48 hours, mice were injected with dynWT, dynL356Q, or dynR725A, and the degree of proteinuria was analyzed 12 hours post injection. […] The rescue could be achieved with both podocin and CMV-driven protein expression.
All animal studies were approved by the MGH Subcommittee for Research Animal Care. C57BL6 mice were obtained from Jackson Laboratory (Bar Harbor, Me.). CatL−/− mice are in a pure C57BL6 background (Nakagawa et al., Science 280, 450-453 (1998)). LPS induced mouse proteinuria model was utilized as previously described (Reiser et al., J Clin Invest 113, 1390-1397 (2004)). Rat PAN nephrosis model was induced by a single intravenous injection of PAN (180 mg/kg body wt; Sigma-Aldrich, St. Louis, Mo.) (Kim et al., Am J Physiol Renal Physiol 286, F922-935 (2004)). […]

[2] = Table 2A, gene delivery into mice, t = 0
[3] = Table 2A, gene delivery into mice, t = 10 h
[4] = Table 2A, gene delivery into mice, t = 24 h
[5] = Table 2B Prevention, 2xLPS, t = 0
[6] = Table 2B Prevention, 2xLPS, t = 10 h
[7] = Table 2C Reversal, LPS at 0 and 24 h, t = 0
[8] = gene delivery immediately before LPS injection

B1: dynR725A: dynamin mutant (SEQ ID NO.4) with impaired GTP hydrolysis capacity (protein, listed as Homo sapiens)
chain: MGNRGMEDLIPLVNRLQDAFSAIGQNADLDLPQIAVVGGQSAGKSSVLENFVGRDFLPRGSGIVTRRPLVLQLVNATTEYAEFLHCKGKKFTDFEEVRLEIEAETDRVTGTNKGISPVPINLRVYSPHVLNLTLVDLPGMTKVPVGDQPPDIEFQIRDMLMQFVTKENCLILAVSPANSDLANSDALKVAKEVDPQGQRTIGVITKLDLMDEGTDARDVLENKLLPLRRGYIGVVNRSQKDIDGKKDITAALAAERKFFLSHPSYRHLADRMGTPYLQKVLNQQLTNHIRDTLPGLRNKLQSQLLSIEKEVEEYKNFRPDDPARKTKALLQMVQQFAVDFEKRIEGSGDQIDTYELSGGARINRIFHERFPFELVKMEFDEKELRREISYAIKNIHGIRTGLFTPDMAFETIVKKQVKKIREPCLKCVDMVISELISTVRQCTKKLQQYPRLREEMERIVTTHIREREGRTKEQVMLLIDIELAYMNTNHEDFIGFANAQQRSNQMNKKKTSGNQDEILVIRKGWLTINNIGIMKGGSKEYWFVLTAENLSWYKDDEEKEKKYMLSVDNLKLRDVEKGFMSSKHIFALFNTEQRNVYKDYRQLELACETQEEVDSWKASFLRAGVYPERVGDKEKASETEENGSDSFMHSMDPQLERQVETIRNLVDSYMAIVNKTVRDLMPKTIMHLMINNTKEFIFSELLANLYSCGDQNTLMEESAEQAQRADEMLRMYHALKEALSIIGDINTTTVSTPMPPPVDDSWLQVQSVPAGRRSPTSSPTPQRRAPAVPPARPGSRGPAPGPPPAGSALGGAPPVPSRPGASPDPFGPPPQVPSRPNRAPPGVPSRSGQASPSRPESPRPPFDL
Protein in the urine (mice; [2]): 0.26 ± 0.13 mg/mL | Protein in the urine (mice; [3]): 0.58 mg/mL | Protein in the urine (mice; Table 2A, gene delivery into mice, t = 10 h, listed as Dyn R725A): 0.58 ± 0.17 mg/mL | Protein in the urine (mice; [4]): 0.20 ± 0.05 mg/mL | Protein in the urine (mice; Table 5 Basic Phenotype, podocin-driven vectors, t = 14 h): 0.88 ± 0.21 mg/mL | Protein in the urine [1, 5]: 0.17 ± 0.07 mg/mL | Protein in the urine [1, 6]: 0.23 ± 0.07 mg/mL | Protein in the urine ([1]; Table 2B Prevention, 2xLPS, t = 24 h): 0.20 mg/mL | Protein in the urine ([1]; Table 2B Prevention, 2xLPS, t = 48 h, listed as Dyn R725A): 1.25 ± 0.26 mg/mL | Protein in the urine ([1]; Table 2B Prevention, 2xLPS, t = 48 h, listed as R725A): 1.25 mg/mL | Protein in the urine [1, 7]: 0.28 ± 0.08 mg/mL | Protein in the urine ([1]; Table 2C Reversal, t = 48 h, at gene transfer): 1.15 mg/mL | Protein in the urine ([1]; Table 2C Reversal, t = 48 h, at gene transfer, listed as Dyn R725A): 1.15 ± 0.15 mg/mL | Protein in the urine ([1]; Table 2C Reversal, t = 58 h, 10 hours after gene transfer): 0.38 mg/mL | Protein in the urine ([1]; Table 2C Reversal, t = 58 h, 10 hours after gene transfer, listed as Dyn R725A): 0.38 ± 0.20 mg/mL | protection from LPS-induced proteinuria, in words [1, 8]: completely inhibited development of proteinuria after 24 hours | reversal of established proteinuria, in words ([1]; injected at 48 hours, analyzed 12 hours post injection): almost complete reversal of proteinuria

B2: dynL356Q, G358V: dynamin mutant (SEQ ID NO.3) not recognized by cathepsin L; ELSGGA mutated to EQSVGA (protein, listed as Homo sapiens)
chain: B1 chain with L356Q, G358V, A725R
Protein in the urine (mice; [2]): 0.22 ± 0.06 mg/mL | Protein in the urine (mice; [3]): 0.33 ± 0.21 mg/mL | Protein in the urine (mice; [4]): 0.40 ± 0.15 mg/mL | proteinuria after gene delivery, in words (mice; healthy mice): did not result in proteinuria | Protein in the urine [1, 5]: 0.21 ± 0.05 mg/mL | Protein in the urine [1, 6]: 0.26 ± 0.05 mg/mL | Protein in the urine ([1]; Table 2B Prevention, 2xLPS, t = 24 h, listed as Dyn L356Q, G358V): 0.47 ± 0.17 mg/mL | Protein in the urine ([1]; Table 2B Prevention, 2xLPS, t = 24 h, listed as L356Q, G358V): 0.47 mg/mL | Protein in the urine ([1]; Table 2B Prevention, 2xLPS, t = 48 h): 0.65 ± 0.10 mg/mL | Protein in the urine [1, 7]: 0.18 ± 0.08 mg/mL | Protein in the urine ([1]; Table 2C Reversal, t = 48 h, at gene transfer, listed as Dyn L356Q, G358V): 1.20 ± 0.27 mg/mL | Protein in the urine ([1]; Table 2C Reversal, t = 48 h, at gene transfer, listed as L356Q, G358V): 1.20 mg/mL | Protein in the urine ([1]; Table 2C Reversal, t = 58 h, 10 hours after gene transfer, listed as Dyn L356Q, G358V): 0.71 ± 0.09 mg/mL | Protein in the urine ([1]; Table 2C Reversal, t = 58 h, 10 hours after gene transfer, listed as L356Q, G358V): 0.71 mg/mL | reduction of proteinuria [1, 8]: ~50% | proteinuria ([1]; prevention, after the second dose of LPS): 0.65 mg/dL | reduction of proteinuria ([1]; reversal, injected at 48 hours, analyzed 12 hours post injection): ~50%
